Data on one substance can be found in PMC8219829.

The target of the assay is protective antigen PA63 heptameric pore (PA_(pore)) (Bacillus anthracis). Description: cryo-EM structure.

By stoichiometry N is commonly meant the number of molecules, sites or subunits per partner or assembly. Substance “protective antigen PA63 heptameric pore (PA_(pore)) (natural protein)” showed a stoichiometry N of 7.
